Source: the Human Domainome abundance scans (Beltran et al. 2025)
± gives the uncertainty stated by the source.

B1: Chromodomain-helicase-DNA-binding protein 4, residues 365 to 417; numbered along this chain, Q14839 (parent)
chain: YETDHQDYCEVCQQGGEIILCDTCPRAYHMVCLDPDMEKAPEGKWSCPHCEKE

Variants of: B1
Test: abundance fitness (aPCA) (normalised: wild type 0, dead -1); higher = more abundant; growth selection in yeast, the domain comes from the species named
Conditions: Homo sapiens

Variant | abundance fitness
Q6A | -0.269 ± 0.26
Q6P | -0.161 ± 0.2
Q6G | -0.384 ± 0.13
Q6S | 0.026 ± 0.12
Q6H | -0.359 ± 0.31
Q6F | -0.606 ± 0.15
Q6W | -0.347 ± 0.097
Q6E | -0.306 ± 0.36
Q6Y | -0.243 ± 0.2
Q6L | -0.239 ± 0.096
Q6V | -0.347 ± 0.095
Q6C | -0.212 ± 0.12
Y8V | -0.124 ± 0.088
Y8I | -0.099 ± 0.17
Y8R | 0.155 ± 0.098
Y8D | -0.269 ± 0.13
Y8A | -0.052 ± 0.09
Y8F | 0.471 ± 0.29
Y8T | 0.221 ± 0.11
Y8G | -0.291 ± 0.08
Y8P | 0.033 ± 0.11
Y8M | 0.011 ± 0.12
Y8Q | 0.427 ± 0.12
Y8N | -0.13 ± 0.28

Variant | abundance fitness
Y8C | -0.222 ± 0.18
Y8H | 0.481 ± 0.15
Y8L | 0.031 ± 0.1
Y8E | -0.109 ± 0.11
Y8W | -0.107 ± 0.14
C9F | -1.09 ± 0.21
C9V | -1.01 ± 0.11
C9P | -0.712 ± 0.16
C9M | -0.562 ± 0.14
C9R | -0.678 ± 0.11
C9E | -0.943 ± 0.15
C9T | -0.791 ± 0.14
C9S | -0.676 ± 0.099
C9G | -0.825 ± 0.094
C9D | -0.777 ± 0.16
C9L | -0.717 ± 0.096
C9Y | -1.02 ± 0.12
C9H | -0.739 ± 0.22
C9Q | -0.845 ± 0.14
C9A | -0.929 ± 0.11
C9I | -0.868 ± 0.17
Y1V | 0.348 ± 0.26
Y1R | 0.048 ± 0.45
Y1C | 0.19 ± 0.22

Variant | abundance fitness
Y1S | 0.108 ± 0.35
Y1L | -0.316 ± 0.31
Y1D | -0.863 ± 0.28
Y1K | 0.593 ± 0.38
Y1M | 0.64 ± 0.43
Y1W | 0.441 ± 0.17
Y1N | -0.028 ± 0.25
Y1F | 0.069 ± 0.47
E2Q | 0.654 ± 0.23
E2D | 0.033 ± 0.15
E2R | 0.406 ± 0.15
E2T | 0.349 ± 0.23
E2M | 0.621 ± 0.28
E2C | 0.484 ± 0.24
E2W | 0.297 ± 0.2
E2L | 0.386 ± 0.13
E2H | 0.347 ± 0.29
E2A | -0.143 ± 0.12
E2I | 0.176 ± 0.2
E2P | 0.263 ± 0.2
E2Y | 0.426 ± 0.18
E2G | 0.102 ± 0.1
E2S | 0.425 ± 0.16
E2K | 0.077 ± 0.29

Variant | abundance fitness
D7M | -0.037 ± 0.19
D7V | -0.19 ± 0.11
D7Q | 0.119 ± 0.19
D7T | 0.067 ± 0.15
D7N | -0.183 ± 0.11
D7W | -0.346 ± 0.14
D7A | -0.095 ± 0.1
D7P | -0.29 ± 0.24
D7S | 0.037 ± 0.12
D7C | -1.06 ± 0.33
D7G | 0 ± 0.092
D7H | -0.51 ± 0.48
D7F | -0.544 ± 0.26
D7E | 0.015 ± 0.11
D7Y | -0.003 ± 0.21
D7I | -0.458 ± 0.22
D7K | -0.075 ± 0.2
D7R | -0.005 ± 0.11
H5M | 0.41 ± 0.12
H5V | 0.208 ± 0.088
H5I | 0.092 ± 0.15
H5S | 0.224 ± 0.099
H5Q | -0.111 ± 0.15
H5G | 0.158 ± 0.081

Variant | abundance fitness
H5W | -0.23 ± 0.12
H5N | 0.12 ± 0.15
H5C | -0.083 ± 0.27
H5D | -0.801 ± 0.18
H5R | 0.193 ± 0.086
H5F | -0.059 ± 0.19
H5A | 0.283 ± 0.098
H5T | 0.349 ± 0.13
H5K | -0.044 ± 0.15
H5P | 0.19 ± 0.13
T3Q | -0.29 ± 0.26
T3M | 0.19 ± 0.18
T3Y | 0.034 ± 0.3
T3K | 0.205 ± 0.16
T3W | -0.182 ± 0.14
T3D | -0.022 ± 0.43
T3L | 0.141 ± 0.1
T3P | -0.225 ± 0.16
T3N | -0.106 ± 0.2
T3F | 0.059 ± 0.16
T3S | 0.185 ± 0.11
T3I | 0.111 ± 0.17
T3H | -0.461 ± 0.29
T3C | 0.124 ± 0.19

Variant | abundance fitness
T3A | -0.396 ± 0.14
T3E | 0.074 ± 0.15
T3R | 0.024 ± 0.1
T3V | 0.103 ± 0.12
T3G | 0.13 ± 0.1
V11G | 0.129 ± 0.084
V11F | 0.262 ± 0.14
V11N | 0.223 ± 0.16
V11C | 0.063 ± 0.12
V11A | -0.098 ± 0.12
V11H | 0.155 ± 0.2
V11I | -0.064 ± 0.1
V11M | 0.223 ± 0.15
V11K | 0.127 ± 0.13
V11L | 0.134 ± 0.094
D4F | -0.031 ± 0.16
D4N | -0.114 ± 0.17
D4K | 0.23 ± 0.17
D4Y | 0.004 ± 0.23
D4T | -0.168 ± 0.11
D4A | -0.066 ± 0.093
D4M | 0.299 ± 0.13
D4W | -0.173 ± 0.1
D4S | -0.127 ± 0.11

Variant | abundance fitness
D4H | 0.304 ± 0.29
D4L | -0.003 ± 0.091
D4E | 0.1 ± 0.11
D4I | -0.089 ± 0.13
D4C | 0.071 ± 0.1
D4G | 0.008 ± 0.077
D4Q | 0.114 ± 0.14
E10N | -0.182 ± 0.24
E10C | -0.26 ± 0.17
E10V | -0.197 ± 0.1
E10K | -0.063 ± 0.15
E10F | -0.015 ± 0.14
E10A | -0.155 ± 0.1
E10H | -0.383 ± 0.17
E10P | -0.157 ± 0.14
E10W | 0.015 ± 0.14
E10S | 0.035 ± 0.11
E10L | 0 ± 0.12
E10Y | 0.133 ± 0.21
E10T | -0.093 ± 0.15
E10I | 0.204 ± 0.2
E10R | -0.022 ± 0.11
E10Q | -0.358 ± 0.24
